Source: US20040204348A1 (ANGSTROM PHARMACEUTICALS, published 2004)
Bridges are numbered along the chain shown (N, C = ends). L10 (R1 : -NH-m-phenylene-NH2) = linker L10: -CO-CH2-NH-CO-CH2-CH2-CH(CO-NH-CH2-COR1)-NH- with R1 = -NH-m-phenylene-NH2; L10 (R1 : -NH-o-phenylene-NH2) = linker L10: -CO-CH2-NH-CO-CH2-CH2-CH(CO-NH-CH2-COR1)-NH- with R1 = -NH-o-phenylene-NH2; L10 (R1 : -NH-p-phenylene-NH2) = linker L10: -CO-CH2-NH-CO-CH2-CH2-CH(CO-NH-CH2-COR1)-NH- with R1 = -NH-p-phenylene-NH2; L15 (R1 : phenyl) = linker L15: -CO-CH2-NH-CO-CH2-CH2-CH(CO-NH-CH2-CO-NH-R1)-NH- with R1 = phenyl (anilide)

These binders were tested against T1, uPAR expressed on cells (RKO human colon carcinoma cells, HeLa cells, stimulated HUVEC) (human, UniProt Q03405 23-305) (assay: competition with 0.2 nM [125I]DFP-uPA on RKO cells, 4 C).
T1 construct: whole, on cells; GPI-anchored receptor on whole cells
T1 sequence (Q03405 23-305): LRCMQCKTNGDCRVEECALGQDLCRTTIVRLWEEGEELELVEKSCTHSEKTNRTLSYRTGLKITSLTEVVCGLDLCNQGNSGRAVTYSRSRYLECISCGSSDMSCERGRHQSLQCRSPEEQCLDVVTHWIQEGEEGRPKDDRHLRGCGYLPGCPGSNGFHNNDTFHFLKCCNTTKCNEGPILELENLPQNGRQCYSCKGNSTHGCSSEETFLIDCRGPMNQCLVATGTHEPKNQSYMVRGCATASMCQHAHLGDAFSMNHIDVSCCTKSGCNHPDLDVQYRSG
Procedure: The compounds of the invention were tested for their binding to uPAR by measuring their ability to inhibit the binding of [¹²⁵I]DFP-uPA (catalytically inactivated high molecular weight uPA) to uPAR expressed by RKO (human colon carcinoma) cells. Cells (about 5×10⁴/well) were plated (in MEM with Earle's salts/10% FBS+antibiotics) in 24-well plates, then incubated in a humid 5% CO₂ atmosphere until the cells reach 70% confluence. Catalytically inactivated high molecular weight uPA (DFP-uPA) was radioiodinated using Iodo-gen® (Pierce) to a specific activity of about 250,000 cpm/mg. The cell-containing plates were then chilled on ice and the cells were washed twice (5 minutes each) with cold PBS/0.05% Tween-80. Test compounds were serially diluted in cold PBS/0.1% BSA/0.01% Tween-80 and added to each well to a final volume of 0.3 mL 10 minutes prior to the addition of the [¹²⁵I]DFP-uPA. Each well then receives 9500 cpm of [¹²⁵I]DFP-uPA at a final concentration of 0.2 nM. The plates were incubated at 4° C. for 2 hrs, after which time the cells were washed 3× (5 minutes each) with cold PBS/0.05% Tween-80. NaOH (1N; 0.5 mL) was added to each well to lyse the cells, the contents of each well were aspirated and the total counts in each well determined using a gamma counter. Each compound was tested in triplicate and the results are expressed as a percentage of the total radioactivity measured in wells containing [¹²⁵I]DFP-uPA alone, which is taken to represent maximum (100%) binding.
RTLPPD inhibited the binding of [¹²⁵I]DFP-uPA with an IC₅₀ of approximately 5 nM (FIG. 3). Modification of RTLPPD with Oregon Green shifted the IC₅₀ to approximately 800 nM (FIG. 3) and modification with biotin shifted the IC₅₀ to approximately 1.1 μM (FIG. 4). RTLMPD and RTLOPD inhibited the binding of [¹²⁵I]DFP-uPA to RKO cells with an IC₅₀ of approximately 50 and 100 nM , respectively (FIG. 3).

Row | IC50 | Binder
1 | ~100 nM | VSNKYFSNIHW (linker N-C via L10 (R1 : -NH-o-phenylene-NH2); also: cyclised by linker L10 between X1 N and X11 carbonyl, also called isomer of RTLPPD incorporating o-phenylenediamine (OPD)) [RTLOPD]
2 | ~5 nM | VSNKYFSNIHW (linker N-C via L10 (R1 : -NH-p-phenylene-NH2); also: cyclised by linker L10 between X1 N and X11 carbonyl) [receptor targeting ligand-p-phenylenediamine derivative (RTLPPD)]
3 | ~1100 nM | VSNKYFSNIHW (linker N-C via L10 (R1 : -NH-p-phenylene-NH2); also: biotin-X (7-atom spacer) label, site not given here, RTLPPD reacted with Biotin-X-sulfoNHS) [biotin-modified-RTLPPD]
4 | ~50 nM | VSNKYFSNIHW (linker N-C via L10 (R1 : -NH-m-phenylene-NH2); also: cyclised by linker L10 between X1 N and X11 carbonyl, also called isomer of RTLPPD incorporating m-phenylenediamine (MPD)) [RTLMPD]
5 | ~800 nM | VSNKYFSNIHW (linker N-C via L10 (R1 : -NH-p-phenylene-NH2); also: Oregon Green (5/6-isomer mix) label, site not certain (intended on phenylenediamine amine), RTLPPD reacted with Oregon Green isothiocyanate; also called Oregon Green-labeled-RTLPPD) [Oregon Green-modified-RTLPPD]

Each binder was assayed against T1, uPAR expressed on cells (RKO human …) (assay: whole-cell competition with [125I]DFP-uPA on HeLa cells, as the method is described; competition for binding to HeLa cells, not BIAcor).
Procedure: HeLa cells (about 5×10⁴/well) were plated in medium MEM with Earle's salts/10% FBS+antibiotics) in 24-well plates, then incubated in a humid 5% CO₂ atmosphere until the cells reached 70% confluence. Catalytically inactivated high molecular weight uPA (DFP-uPA) labeled with radioactive ¹²⁵I (specific activity 250,000 cpm/mg) served as the uPAR label. Plates in which the cells were incubated were chilled on ice and the cells were washed twice (5 minutes each) with cold PBS/0.05% Tween-80. DFP-UPA and Å36 were serially diluted in cold PBS/0.1% BSA/0.01% Tween-80 and added to each well to a final volume of 0.3 mL 10 minutes prior to the addition of [¹²⁵I]DFP-UPA. Each well then received 9500 cpm of [¹²⁵I]DFP-UPA at a final concentration of 0.2 nM). The plates were incubated at 4° C. for 2 hrs, after which the cells are washed 3× (5 minutes each) with cold PBS/0.05% Tween-80. Cells were lysed by addition of NaOH (1N) 0.5 mL/well for 5 minutes at room temperature or until all the cells in each well were lysed by microscopic examination. The contents of each well were aspirated, and the total counts in each well were determined using a gamma counter. Each compound was tested in triplicate and the results were expressed as a percentage of the total radioactivity measured in wells containing [¹²⁵I]DFP-uPA alone, which is taken to represent maximum (100%) binding.

Row | Kd | Binder
6 | 30 nM | VSNKYFSNIHW (linker N-C via L15 (R1 : phenyl); also: cyclised by linker L15 between X1 N and X11 carbonyl, also called A36; cyclic peptide Å36) [Å36]
